# Experimental data: patent publication US10941197 (dated 2021)
# Changes are numbered by the printed parent chain.
# T1: cyno OSM (cynomolgus)
# T1 chain: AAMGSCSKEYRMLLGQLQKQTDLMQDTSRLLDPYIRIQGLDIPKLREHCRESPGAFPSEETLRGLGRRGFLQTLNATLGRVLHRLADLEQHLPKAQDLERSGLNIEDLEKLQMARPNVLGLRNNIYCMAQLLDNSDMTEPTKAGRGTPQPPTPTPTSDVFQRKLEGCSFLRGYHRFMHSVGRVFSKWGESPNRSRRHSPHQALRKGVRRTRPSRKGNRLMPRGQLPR
# T2: human OSM (human)
# T2 chain: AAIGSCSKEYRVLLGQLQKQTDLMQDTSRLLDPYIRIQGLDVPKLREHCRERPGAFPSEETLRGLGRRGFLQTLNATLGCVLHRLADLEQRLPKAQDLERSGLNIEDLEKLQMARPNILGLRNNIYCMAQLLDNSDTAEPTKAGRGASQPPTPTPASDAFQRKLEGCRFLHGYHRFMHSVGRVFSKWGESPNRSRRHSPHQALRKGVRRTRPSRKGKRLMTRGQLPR
# B1: M71 (designed binder)
# chain 1: EVQLVQSGAEVKKPGESLKISCKGSGYSFTSYWISWVRQMPGKGLEWMGIIYPGDSYTRYSPSFQGQVTISADKSISTAYLQWSSLKASDTAMYYCARVPVSPAYLDY
# chain 2: not shown
# B2: M69 (designed binder)
# chain 1: B1 chain 1
# chain 2: not shown
# B3: M55 (designed binder)
# chain 1: B1 chain 1 with V99G, P100S, S102F, P103E, L106F
# chain 2: not shown
# B4: M42 (designed binder)
# chain 1: B1 chain 1 with V99G, P100S, S102F, P103E, L106F
# chain 2: not shown
# B5: M54 (designed binder)
# chain 1: B1 chain 1 with V99G, P100S, S102F, P103E, L106F
# chain 2: not shown
# B6: M64 (designed binder)
# chain 1: B1 chain 1
# chain 2: not shown
# Biological target: T1, cyno OSM
# Test: SPR
row,Binder,Kd [nM]
1,B1,0.108
2,B2,0.062
3,B3,0.058
4,B4,0.516
5,B5,0.057
6,B6,0.023

# Biological target: T2, human OSM
# Test: SPR
row,Binder,Kd [nM]
1,B1,0.105
2,B2,0.045
3,B3,0.054
4,B4,0.484
5,B5,0.053
6,B6,0.095
